Results taken from patent US20210155689A1 (SHANGHAI PHARMAEXPLORER, published 2021).

T1: LAG-3-hFc protein (human LAG-3 extracellular region with hFc tag) (human, UniProt P18627 23-450)
T1 construct: also called hLAG-3-hFc; LAG-3 protein; not shown: human IgG Fc fragment (hFc) of the pCpC vector
T1 sequence: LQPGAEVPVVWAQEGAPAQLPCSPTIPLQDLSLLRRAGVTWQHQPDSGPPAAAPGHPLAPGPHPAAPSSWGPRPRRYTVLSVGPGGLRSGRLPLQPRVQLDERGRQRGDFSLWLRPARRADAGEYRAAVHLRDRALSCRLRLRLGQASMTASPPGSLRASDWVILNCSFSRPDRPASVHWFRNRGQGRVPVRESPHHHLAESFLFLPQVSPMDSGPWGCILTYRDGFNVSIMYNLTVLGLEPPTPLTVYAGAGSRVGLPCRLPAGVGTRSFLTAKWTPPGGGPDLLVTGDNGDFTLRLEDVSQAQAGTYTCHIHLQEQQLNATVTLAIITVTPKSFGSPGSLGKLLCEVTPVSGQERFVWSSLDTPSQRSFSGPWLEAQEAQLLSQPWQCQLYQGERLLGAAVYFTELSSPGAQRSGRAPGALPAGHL


Molecular target: T1, LAG-3-hFc protein (human LAG-3 …)
Assay: FACS, inhibition of LAG-3-hFc binding to MHC II on Raji cells, antibody 66.667 nM
Method: The FACS reaction plate incubating the Raji cells was centrifuged to discard the supernatant. The above mixture was added as 100 μl per well to Raji cells and incubated on ice for 1-2 hours. The plate was washed twice with blocking solution (PBS, 2% fetal bovine serum) by centrifugation, added with 100 microliters of fluorescent (Alexa 488)-labeled secondary antibodies per well, and incubated on ice for 1.0 hours. The plate was washed 2-3 times by centrifugation with blocking solution (PBS, 2% fetal bovine serum), added with 100 microliters of PBS per well to suspend cells, and detected using FACS (FACS Calibur, BD) and the results were analyzed. Wherein, the IgG control was murine IgG, and the data in the table is the inhibition rate (%).

Binder | Inhibition rate (%)
105F1E10 mouse-human chimeric antibody (antibody, V domains shown, also called mAb009-105F1E10) VH: EVQLQQSGPELVKPGASVKMSCRASGYTFTDFKMHWMKQSHGKSLEWIGYIAPNNGGTAYNQKFRGKATLTVNESSNTAYMELRSLTSEDSAVYYCVDWDDVDYWGQGTTLTVSS VL: DIKMTQSPSSMYASLGERVTITCKASQDINSYLSWFQQKSGKSPKTLIYRANRLVDGVPSRFSGSGSGQDYSLTISSLEYEDMGIYYCLQYVEFPLTFGAGTKLELK | 96
405B8H3 mouse-human chimeric antibody (antibody, V domains shown, also called mAb103-405B8H3) VH: QVQLQQSGAELVRPGASVTLSCKASGYTFTDYEMHWVKQTPVHGLEWIGATDPETGNSAYNQKFKGKAIMTADKSSSTAYMELRSLTSEDSAVYYCISTGWNDWGQGTSLTVSS VL: DIKMTQSPSSMYASLGERVTITCKASQDINSYLSWFQQKPGKSPKTLIYRADRLLDGVPSRFSGSGSGQDYSLTISSLEYGDMGIYYCLQYDEFPYTFGGGTKLEIK | 95.8
409B11E12 mouse-human chimeric antibody (antibody, V domains shown, also called mAb104-409B11E12) VH: QVQLQQSGAELVRPGASVTLSCKASGYTFTDYEMHWVKQTTVHGLEWIGATDPETSYSAYNQKFKGKAILTADKSSSTAYMELRSLTSEDSAVYYCIATGWNDWGQGTSLTVSS VL: DLKMTQSPSSMYASLGERVTITCKASQDINSYLSWFQQKPGKSPKTLIYRANRLLDGVPSRFSGSGSGQDYSLTISSLEYEDMGIYYCLQYDEFPYTFGGGTKLEIK | 95.3
409D4E10 mouse-human chimeric antibody (antibody, V domains shown, also called mAb112-409D4E10) VH: QVQLQQSGAELVRPGASVTLSCKASGNTFTDYEMHWVKQTPVHGLEWIGATDPETDNTAYNQKFKGKAILTTDKSSSTAYMELRSLTSEDSAVYYCITSGWNDWGQGTSLTVSS VL: DIKMTQSPSSMYASLGERVTITCKASQDINSYLSWFQQKPGKSPKTLIYRANRLLDGVPSRFSGSGSGQDYSLTISSLEYEDMGIYYCLQYNEFPYTFGGGTKLEIK | 95.9
